# From paper PMC8008353 (The Journal of Biological Chemistry, 2005)
# Biological target: the molecule itself
# Assay: AUC
row,Protein,stoichiometry N
1,"NF2 (N protein fragment, residues 211-422) (domain or fragment) MASGGGETALALLLLDRLNQLESKVSGKGQQQQGQTVTKKSAAEASKKPRQKRTATKQYNVTQAFGRRGPEQTQGNFGDQDLIRQGTDYKHWPQIAQFAPSASAFFGMSRIGMEVTPSGTWLTYHGAIKLDDKDPQFKDNVILLNKHIDAYKTFPPTEPKKDKKKKTDEAQPLPQRQKKQPTVTLLPAADMDDFSRQLQNSMSGASADSTQA",2
2,"NF4 (N protein fragment, residues 285-422) (domain or fragment) GNFGDQDLIRQGTDYKHWPQIAQFAPSASAFFGMSRIGMEVTPSGTWLTYHGAIKLDDKDPQFKDNVILLNKHIDAYKTFPPTEPKKDKKKKTDEAQPLPQRQKKQPTVTLLPAADMDDFSRQLQNSMSGASADSTQA",2
